Results reported in patent US20250282887A1 (Amgen, published 2025).

T1: Human MAGEB2 (Melanoma-associated antigen B2) (human, UniProt O15479 1-319)
T1 construct: Intracellular antigen detected by IHC in FFPE material: CHO cells transfected with human MAGEB2 (mCherry vector with Myc/DDK tags, or ORF without tags)
T1 sequence: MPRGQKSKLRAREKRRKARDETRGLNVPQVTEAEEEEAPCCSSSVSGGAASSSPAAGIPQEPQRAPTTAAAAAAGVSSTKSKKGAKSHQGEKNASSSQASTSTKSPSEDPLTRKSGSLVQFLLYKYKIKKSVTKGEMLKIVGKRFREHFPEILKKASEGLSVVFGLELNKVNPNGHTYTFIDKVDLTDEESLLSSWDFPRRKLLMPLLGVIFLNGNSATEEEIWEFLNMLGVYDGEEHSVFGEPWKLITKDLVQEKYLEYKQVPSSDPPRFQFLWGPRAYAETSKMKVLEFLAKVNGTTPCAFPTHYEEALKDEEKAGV

T2: huMAGEB2(1-319), biotinylated full length MAGEB2 protein (human, UniProt O15479 1-319, biotinylated with recombinant BirA (site not stated))
T2 construct: Expressed in E. coli from pET23; N-terminal 6xHis tag removed with caspase 3; also called Biotinylated MAGEB2 full length protein
T2 sequence: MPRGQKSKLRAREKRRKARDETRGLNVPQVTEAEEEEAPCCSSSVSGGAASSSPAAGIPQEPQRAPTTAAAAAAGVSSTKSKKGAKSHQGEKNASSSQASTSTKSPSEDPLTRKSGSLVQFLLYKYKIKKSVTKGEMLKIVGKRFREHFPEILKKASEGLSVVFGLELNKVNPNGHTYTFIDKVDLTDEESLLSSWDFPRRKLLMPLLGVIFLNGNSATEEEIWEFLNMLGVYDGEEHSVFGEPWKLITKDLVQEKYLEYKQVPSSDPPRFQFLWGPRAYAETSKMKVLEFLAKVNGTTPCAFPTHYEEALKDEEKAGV


How the values were obtained:
[1] = target: T1, Human MAGEB2 (Melanoma-associated …); experiment: IHC, antibody supernatant on FFPE CHO cells transfected with human MAGEB2
From the text: Negative control cells included parental Chinese hamster ovary (CHO) cells, CHO cells stably transfected with mCherry Vector Control (minus Myc/DDK tags), CHO cells stably transfected with mCherry-human DCAF4L2 (plus Myc/DDK tags). The cross-reactivity control cells included CHO cells transfected with mCherry Vector Control (plus Myc/DDK tags) with one of the human MAGE-B or MAGE-A family members (MAGEA1, MAGEA2, MAGEA3, MAGEA4, MAGEA5, MAGEA6, MAGEA8, MAGEA9, MAGEA11, MAGEA12, MAGEB1, MAGEB3, MAGEB4, MAGEB5, MAGEB6, MAGEB10, MAGEB16, MAGEB17, MAGEB18). Positive control cell lines included CHO cells transfected with mCherry Vector (plus Myc/DDK tags) with human MAGE-B2 or CHO cells transfected with mCherry Vector (open reading frame (ORF); minus Myc/DDK tags) with human MAGEB2, and thirteen human cancer cell lines with known endogenous RNA expression level of MAGEB2 (U266B1, T98G, KMM-1, U20S, CFPAC-1, SCaBER, UACC-257, CFPAC-1, VMRC-LCD, NCI-H1703, UM-UC-3, NCI-H1395, NCIH82).
FFPE samples were sectioned at 4 μm and mounted on positive charged glass slides. After mounting, paraffin sections were air-dried at room temperature. FFPE TMA samples were received as freshly sectioned and mounted on glass slides. The fully automated IHC assay was performed on a Discovery Ultra Stainer (Ventana Medical Systems, Tucson, AZ) using Ventana Anti-Rabbit HQ (cat #760-4815), Ventana Anti-HQ HRP (cat #760-4820), and Ventana Antibody Diluent with Casein (cat #760-219) (Ventana Medical Systems, Tucson, AZ). The slides were baked on the Discovery Ultra Stainer at 60° C. for 8 minutes, de-paraffinized with Ventana Discovery wash (cat #950-510) for 3 cycles (8 minutes each) at 69° C., and underwent cell conditioning (target retrieval) at 95° C. for 16 minutes (for cell arrays) or 32 minutes (tissues or TMAs) in CC1 buffer (cat #950-500). Following this, slides were incubated with Background Sniper (cat #BS966M, Biocare Medical, Pacheco, CA) in a Ventana Option Prep kit (cat #771-751) for 28 minutes, incubated with CM inhibitor (a part of the Ventana DAB kit cat #760-159) for 12 minutes, and incubated for 1 h at RT with MAGE-B2 antibody diluted with Ventana diluent with Casein in a Ventana Prep kit (cat #770-001) (working concentration at 0.1 μg/ml for cell pellet, or 1-5 ug/ml for tissues) or with a matched concentration of isotype control Rabbit IgG1 antibody.

[2] = target: T2, huMAGEB2(1-319), biotinylated full …; experiment: limited antigen FACS; biotinylated full length MAGEB2 on LumAvidin beads; B-cell supernatant
Method: Biotinylated MAGEB2 full length protein was titrated 1:2 across 6 different limited antigen concentrations and then coated onto six different LumAvidin beads in FACS buffer [1×PBS+2% fetal bovine serum (Hyclone Cat No. SH30396.03)] for 30 minutes at room temperature in the dark. The beads were then washed twice in FACS buffer by centrifugation for 2 min at 3500 RPM. The coated beads were resuspended and pooled together (6-plex) and added to the rabbit B-cell supernatants at a 1:2 final dilution onto Corning 3897 96 well V-bottom polystyrene plates and incubated overnight at room temperature in the dark. […] A final wash was done before plates were read on the iQue FACS machine with Intellicyte autosampler to obtain flow cytometry measurements according to the manufacturer's recommendations; data analysis was done on Intellicyt ForeCyt® Enterprise Client Edition 6.2 (R3).

Binder	binding result [1]	binding result [2]
7F15 (antibody, IgG1, V domains shown, Rabbit monoclonal IgG1) VH: QEQLKESGGGLVAPGGTLTLTCAVSGFSLSSYNMGWVRQAPGEGLEYIGIIGASDSALYASWAKGRFTISKTSTTVDLKITSPTTEDTATYFCARGGLGLSTGFALWGPGTLVTVSS VL: AAVLTQTPSPVSAAVGGTVSISCQSSQSVWHNDYLSWYQQKPGQPPKLLIYGASTLASGVPSRFKGSGSGTQFSLTISGVQCDDAATYYCAGGYGRSSENGFGGGTEVVVK	binds	binds
1J16 (antibody, IgG1, V domains shown, Rabbit monoclonal IgG1) VH: QSLEESGGGLVQPEGSLTVTCTAFGVTLTNYYICWVRQAPGKGLEWIGCIDNINGRTYYASWAKGRFTISKTSSTTGTLQMTSLTAADTATYFCARSLATPLWGPGTLVTVSS VL: DIVMTQTPASVEAAVGGTVTIKCQASQSISSYLAWYHQKPGQPPKLLIYAASTLASGVPSRFEGSGSGTQFTLTISDLECADAATYYCQSYDDSRSSSFFYAFGGGTEVVVK	binds	binds
1H24 (antibody, IgG1, V domains shown, Rabbit monoclonal IgG1) VH: QSLEESGGGLVQPEGSLTLTCTASGFTLNNYYICWVRQAPGKGLEWIACIDNSNGRTYYASWAKGRFTISKTSSTTVTLQMTSLTAADTATYFCARSLSTPLWGPGTLVTVSS VL: DIVMTQTPFSVEAAVGGTVTIKCQASQSISSYLSWYRQKPGQPPKLLIYRASTLASGVPSRFKGSGSGTQFTLTISDLECADAATYYCQSYDDSSSNNFFYGFGGGTEVVVR	binds	binds
1D2 (antibody, IgG1, V domains shown, Rabbit monoclonal IgG1) VH: QSLEESGGGLVQPEGSLTLTCTASGFTLNNYYICWVRQAPGKGLEWIACIDNVNGRTYYASWAKGRFTISRTSSTTVTLQMTSLTAADTATYFCARSLSTPLWGPGTLVTVSS VL: DIVMTQTPFSVEAAVGGTVTIKCQASQSISSYLSWYQQKPGQPPKLLIYRASPLASGVPSRFKGSGSGTQFTLTISDLECADAATYYCQSYDDSSSNNFFYGFGGGTEVVVR	binds	binds
4A15 (antibody, IgG1, V domains shown, Rabbit monoclonal IgG1) VH: QSLEESGGGLVQPEGSLTLTCTASGVTLTNYYICWVRQAPGKGLEWIGCIDNVNGRTYYASWAKGRFTISKASSTTGTLQMTSLTAADTATYFCARSLATPLWGPGTLVTVSS VL: DIVMTQTPASVEAAVGGTVTIKCQASQNINSYLAWYQQKPGQPPKLLIYRASTLASGVPSRFKGSGSGTEFTLTISDLECADAATYYCQSYDDSRSISFFYAFGGGTEVVVK	binds	binds
1C18 (antibody, IgG1, V domains shown, Rabbit monoclonal IgG1) VH: QSLEESGGGLVQPEGSLTLTCTASGFTLTNYYICWVRQAPGKGLEWIACIDNANGRTYYATWAKGRFTISKTSSTTVTLQMPSLTAADTATYFCARSLSTNLWGPGTLVTVSS VL: DIVMTQTPASVEAAVGGTVTIKCQASQSISSWLSWYQQKPGQPPKLLLYRATTLASGVPSRFKGSGSGTQFTLTISDLECADAATYYCQSYDDSSSSNFFYAFGGGTEVVVR	binds	binds
4G8 (antibody, IgG1, V domains shown, Rabbit monoclonal IgG1) VH: QEQLVESGGGLVQPEGSLTLTCAASGFSFSSSYFMCWVRQAPGKGLEWIACIAVGSSGSTYYASWAKGRFTISKTSSTTVTLQMTSLTAADTATYFCARVGYDDYGDSDAFDPWGPGTLVTVSS VL: AAVLTQTPSPVSAAVGGTVTINCQSSKSVYNKNWLSWFQQKPGQPPKLLIYGASTLASGVPSRFKGSGSGTQFTLTISDVQCDDVATYYCAGGYSSSSDTFAFGGGTEVVVK	binds	binds

The remaining lines, values ahead:

binding result [1]	binding result [2]	Binder
binds	binds	5I9 (antibody, IgG1, V domains shown, Rabbit monoclonal IgG1) VH: QSLEESGGRLVTPGGPLTLTCTVSGFSLSSYDMSWVRQAPGKGLEWIGYIATDGRPYYASWAKGRFTISKPSSTTVDLKITSPTTEDTATYFCVRGGYAGGLWGPGTLVTVSS VL: AAVLTQTPSPVSAAVGGTVSISCQSSKSVYNNNWLAWYQQKPGQRPKLLIYDASTLDSGVSSRFKGSGSGTQFTLTISDVQCDDGATYYCVGGYSSRSDNGFGGGTEVVVK
binds	binds	7H4 (antibody, IgG1, V domains shown, Rabbit monoclonal IgG1) VH: QSLEESGGGLVKPGASLTLTCKASGSDFRSYYYICWVRQAPGKGLEWVACIGGGNTDATAYARWAKGRFTISKTSATTVALQMTSLTAADTATYFCVRGGPDNNVQFNLWGPGTLVTVSS VL: QAVVTQTPSSVSAAVGGTVTISCQSSQSVYSNNLLSWYQQKPGQPPKLLIYKASTLASGVPSRLKGSGSGTQFTLTISEVQCDDAATYYCQGYYSGVIYMFGGGTEVVVK
binds	binds	7B20 (antibody, IgG1, V domains shown, Rabbit monoclonal IgG1) VH: QSLEESGGGLVKPGASLTLTCKASGSDLSSAYYICWIRQAPGKGLEWVACIGGVNRVATAYATWAKGRFTISKTSSTTVTLQMTSLTAADTATYFCVRGGPDNNVQFNLWGPGTLVTVSS VL: AQVLTQTPASVSAAVGGTVTISCQSSQSVYSSDLLSWYQQKPGQPPKLLIYKASTLASGVPSRFKGSGSGTQFTLTISELQCDDAATYYCQGYYSGVVYIFGGGTEVVVK
binds	binds	1I23 (antibody, IgG1, V domains shown, Rabbit monoclonal IgG1) VH: QEQLVESGGGLVQPKGSLTLTCAASGFSFSSSYFMCWVRQAPGKGLEWIACIGSGSSAISTFYASWAQGRFTISKTSSTTVTLQMTSLTAADTATYFCARVGYDDYGDSDAFDPWGPGTLVTVSS VL: AAVLTQTPSPVSAAVGGTVSISCQSSKSVYNKNWLSWFQQKPGQPPKLLIYGASTLASGVPSRFKGSGSGTQFTLTISDVQCDDAATYYCAGGYSSSSDTFAFGGGTEVVVK
binds	binds	4A7 (antibody, IgG1, V domains shown, Rabbit monoclonal IgG1) VH: QEQLVESGGGLVQPEGSLTLTCAASGFSFSSSYFMCWVRQAPGKGLEWIACIGVGGSGSTYYANWAKGRFTISKTSSTTVTLQMTSLTAADTATYFCARVAYDDDGDSDAFDPWGPGTLVTVSS VL: AAVLTQTPSPVSAAVGGTVSISCQSSKSVYNKNWLSWFQQKPGQPPKLLIYGASTLASGVPSRFKGSGSGTQFTLTISGVQCDDAATYYCAGGYSSSSDTFAFGGGTEVVVK
binds	binds	1H17 (antibody, V domains shown) VH: QEQLVESGGGLVKPGASLTLTCKASGFSFSSGQLMCWVRQAPGKGLEWIACIGSGSNAISTFYASWAQGRFTISKSSSTTVTLQLTSLTAADTATYFCARVGSDDYGDSDVFDPWGPGTLVTVSS VL: AAVLTQTPSPVSAAVGGTVSASCQSSKSVYNKNWLSWFQQKPGQPPKLLIYGASTLASGVPSRFKGSGSGTQFTLTISDVQCDDAATYYCAGGYSSSSDTFAFGGGTEVVVKG
binds	binds	7M5 (antibody, IgG1, V domains shown, Rabbit monoclonal IgG1) VH: QSLEESGGRLVTPGGSLTLTCTVSGIDLSSHAMIWVRQAPGEGLEWIGTIGSRDTIYYASWAKGRFTISKTSSTTMDLKMTSLTIEDTATYFCVRNALWGPGTLVTVSS VL: DVVMTQTPASVSEPVGGTVTIKCQASQSIRNELFWWQQKPGQPPKLLIYAASKLASGVPSRFSGSGSGTEFTLTISDLECADAATYYCQCSYVSSSGTYGNVFGGGTEVVVK
